Values quoted from earlier work, collected in PMC8403128.
Like-named read-outs stand apart in the source and are kept apart here.

Columns and labels:
[1] = target: Low-density lipoprotein receptor-related protein 1 (Homo sapiens) (UniProt Q07954)
[2] = target: Low-density lipoprotein receptor-related protein 1 (Homo sapiens) (UniProt Q07954); remark: listed apart in the source

Chain of UniProt Q07954 (Q07954 4441-4544): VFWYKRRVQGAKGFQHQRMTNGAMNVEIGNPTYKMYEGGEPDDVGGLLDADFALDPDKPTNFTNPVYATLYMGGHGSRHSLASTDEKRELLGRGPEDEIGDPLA

Kd [1] [nM]	Kd [2] [nM]	Substance
> 1000		Matrix metalloproteinase-1 (from UniProt P03956)
	> 1000	Matrix metalloproteinase-3 (from UniProt P08254)
